The target in this test is human somatostatin receptor 5 (SSTR5) (human) (UniProt P35346).
Chain of UniProt P35346 (P35346 whole entry): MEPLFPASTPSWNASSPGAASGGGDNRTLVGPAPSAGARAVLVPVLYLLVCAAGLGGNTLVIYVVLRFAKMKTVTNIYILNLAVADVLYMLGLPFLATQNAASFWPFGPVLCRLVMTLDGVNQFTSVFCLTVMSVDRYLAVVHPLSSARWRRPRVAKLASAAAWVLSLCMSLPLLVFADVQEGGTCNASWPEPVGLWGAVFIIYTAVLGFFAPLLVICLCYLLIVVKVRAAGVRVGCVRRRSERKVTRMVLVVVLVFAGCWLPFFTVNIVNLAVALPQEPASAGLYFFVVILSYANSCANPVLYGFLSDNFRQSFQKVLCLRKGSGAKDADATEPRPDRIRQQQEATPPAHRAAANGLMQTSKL

“SRIF-14-Sed1 periplasmic display fusion (from UniProt P61278 103-116) (ligand)” displayed an autocrine GPCR activation by αPre-ligand-display fusion, DCyFIR mTq2 transcriptional reporter, relative to the Ccw14 fusion (% of the activity of the Ccw14 fusion) of 30.

(Values after publication PMC12796099.)
